The text below walks through data of publication doi:10.1101/2025.01.28.635075.

Several values for one entry are separate records, joined by “and”; a condition that tells them apart may be missing. Equal values may be shown once.

Assay [1] concerns the target MMOH protomer (αβγ) from Methylosinus sporium 5 (Methylosinus sporium 5). Briefly: cryo-EM structure.
Assay [2] concerns the target soluble methane monooxygenase hydroxylase (MMOH), α2β2γ2, from Methylosinus sporium 5 (Methylosinus sporium 5). Briefly: cryo-EM structure.

In general, stoichiometry N refers to the number of molecules, sites or subunits per partner or assembly. As to “MMOH protomer (αβγ) from Methylosinus sporium 5 (from UniProt A0ACH3GMT4 1-520) (complex)”, the stoichiometry N in assay [1] turned out to be 2.

In the case of “regulatory component of soluble methane monooxygenase (MMOB) from Methylosinus sporium 5 (natural protein)”, the stoichiometry N in assay [2] was 1 and 2.
